The values that follow come from patent US9347884B2, “Microfluidic device with direct sample heating via electromagnetic radiation” (UCL BUSINESS PLC, priority 2009, dated 2016).

The conditions of data set [1]: Literature, cited from earlier work.
The nature of data set [2]: Equilibrium denaturation of FKBP-12 proteins by GdnHCl, microplate method. It is filed as physicochemical. The method, then:
(§1) The experimental detail was as set out below:
(§2) Equilibrium denaturation of wild-type FKBP-12: 50 μl, of FKBP-12 stock (50 μM FKBP-12, 5 mM DTT, 50 mM Tris.HCl, pH 7.5) was added to each well of a UV transparent Costar (Corning, Lowell, Mass., USA) 96-well plate. […] Samples were sealed and equilibrated for 17 hours at 22° C. prior to measurement of intrinsic protein fluorescence in a Fluostar Optima plate reader as above. The same samples were then used to measure intrinsic protein fluorescence in the micro-capillary device for a direct comparison.
(§3) Data for the observed fluorescence (Fobs) as a function of denaturant concentration ([D]) were fit using SigmaPlot 10.0 (Systat Software, Hounslow, UK) to the equation below: […]
(§4) The free energy of protein denaturation in water ΔGH2O was calculated as mGC1/2, using the fitted mG, where we set the denaturant dependent free energy (ΔGobs) to zero in the equation below when [D] is equal to C1/2. ΔGobs=ΔGH2O+mG[D] Values of ΔGH2O were used to calculate the change in free energy of the mutant or ligand bound protein, ΔΔGX-WT, relative to un-liganded wild-type FKBP-12. The change in free energy of unfolding upon ligand binding, ΔΔGbinding, was calculated for each mutant from the values of ΔGH2O for liganded FKBP-12 relative to ΔGH2O for non-liganded FKBP-12.

Data set [3] is described as follows: Example 1 GdHCl denaturation of FKBP-12, capillary intrinsic fluorescence. It is filed as physicochemical. The settings on record: 2 μM FKBP-12, GdHCl, 1 mM DTT, 50 mM Tris.HCl pH 7.5, 20° C.
Description: The configuration comprises a laser 5 (QUV266-02, Crystalaser, Reno, Nev.) of wavelength 266 nm, 5 mW, pulsed at 1 kHz; a bandpass filter (newport), at 266 nm 15; a converging lens (SPX010AR.10, Newport) 16; a 100 μm internal diameter capillary (FS-110, Upchurch™) 1; and a photo multiplier tube (R1166PMT, Hamamatsu, Japan) 7; linked to a data acquisition system consisting of a PC expansion card (PXI-5124, National Instruments), for capture and analysis of the data in Labview (National Instruments). […] Samples were measured and averaged for 100 laser pulses. […] A fluorescence relative intensity of 1500 at a concentration of 0 mg ml^−1 of BSA corresponds to the background signal of the setup generated by excitation radiation.
The denaturation experiment was repeated for another protein using 2 μM FKBP-12. […] The stability was measured using the denaturant guanidinium hydrochloride (GdHCl) in 1 mM dithiothreitol (DTT), 50 mM Tris.HCl at pH 7.5 and at 20° C., using a flow rate of 10 μL/min through the capillary. The fluorescence of FKBP with various concentrations of GdHCl (from 0M to 3M) was measured. […] C1/2 represents the denaturant concentration at which half of the protein is in the unfolded state.
Data set [4] can be described thus: Equilibrium denaturation of FKBP-12 proteins by GdnHCl, capillary method. It is filed as physicochemical. The protocol: Samples were measured and averaged for 100 laser pulses. […] Error bars shown are standard deviations.
as §1, §2, §3, §4

[5] abbreviates: GdnHCl, 50 mM Tris.HCl pH 7.5, 1 mM DTT.
[6] abbreviates: GdnHCl, mG from each independent curve fit.
The mark [7] stands for this setting: GdnHCl, using average mG values.
Where [8] appears, read: relative to wild-type FKBP-12 without rapamycin, from ΔGH2O.

Where two headings read alike, the source gives them in different places.

For “FKBP-12 wt: Wild-type FKBP-12 expressed and purified from a GST-FKBP fusion gene in E. coli BL21 cells”, the “C1/2 (transition mid-point)” value in data set [1] (GdnHCl) is 0.78 ± 0.005 M; in data set [2] (setting [5]), 0.77 ± 0.01 M; in data set [4] (setting [5]) it was 0.74 ± 0.02 M. Also, the mG is 6.6 ± 0.3 kcal mol^−1 M^−1 in data set [1] (GdnHCl), 6.6 ± 0.4 kcal mol^−1 M^−1 in data set [2] (GdnHCl) and 5.4 ± 0.7 kcal mol^−1 M^−1 in data set [4] (GdnHCl). For the same substance, the ΔGH2O in data set [1] (GdnHCl) is 5.13 ± 0.2 kcal/mol; in data set [2] (setting [6]), 5.05 ± 0.3 kcal/mol; in data set [4] (setting [6]), 4.03 ± 0.5 kcal/mol. The ΔΔGX-WT in data set [1] (relative to wild-type FKBP-12 without rapamycin), in data set [2] (setting [8]) and in data set [4] (setting [8]) was 0 kcal/mol throughout. Further, the “ΔG<mG>” value in data set [2] (setting [7]) amounted to 4.72 ± 0.3 kcal/mol; in data set [4] (setting [7]), 3.84 ± 0.3 kcal/mol. Further, in data set [3], the “mid-point of denaturation (C1/2), absence of rapamycin” value is given as 0.65 M.
